Assay results as given in article PMC11039998 (Nucleic Acids Research, 2024).
Where no end group is shown, it is not given here.

Target: Methyl binding domain (MBD) of MeCP2, wild-type (UniProt P51608 90-162)
Experiment: ITC

Sequence of Methyl binding domain (MBD) of MeCP2, wild-type (P51608 90-162): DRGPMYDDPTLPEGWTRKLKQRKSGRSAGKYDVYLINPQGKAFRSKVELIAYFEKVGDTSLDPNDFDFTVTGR

| Kd [µM] | Binder |
| --- | --- |
| 12 | TKAARK(Me3)SAPAT [H3-derived peptide of the K27 region, trimethylated at K27] |
| 3.4 | Ac-TKAARKSAPAT-NH2 [H3-derived peptide of the K27 region, wild-type] |
